# Test results from patent publication US20220153839A1 (NBE THERAPEUTICS, published 2022).
# Numbering of substitutions follows the chain as printed.
# B1: HuXBR1-402(3)-G5-PNU (Adc456) (other)
# VH: QVQLRESGPGLVKPSETLSLTCTVSGFDISSYYMSWVRQPPGKGLEWIGAIGISGNAYYASWAKSRVTISRDTSKNQFSLKLSSVTAADTAVYYCARDHPTYGMDLWGPGTLVTVSS
# VL: SYELTQPLSVSVALGQTARITCEGNNIGSKAVHWYQQKPGQAPVLVIYDDDERPSGIPERFSGSNSGNTATLTISRAQAGDEADYYCQVWDSSAYVFGGGTKLTVLG
# modifications: Gly5-EDA-PNU joined by sortase to the C-terminal G5SLPETG tag of the full light chain; Gly5-EDA-PNU joined by sortase to the C-terminal LPETG tag of the full heavy chain
# B2: HuXBR1-402(15)-G5-PNU (Adc458) (other)
# VH: B1 VH with R5Q
# VL: B1 VL with L8P, L14P, Q16K, A77V, Q78E
# modifications: Gly5-EDA-PNU joined by sortase to the C-terminal G5SLPETG tag of the full light chain; Gly5-EDA-PNU joined by sortase to the C-terminal LPETG tag of the full heavy chain
# B3: HuXBR1-402(8)-G5-PNU (Adc457) (other)
# VH: B1 VH with R5Q
# VL: SYELTQPPSVSVSPGQTAIITCEGNNIGSKAVHWYQQKPGLSPVLVIYDDDERPSGIPERFSGSNSGNTATLTVSGTQDMDEADYYCQVWDSSAYVFGGGTKLTVLG
# modifications: Gly5-EDA-PNU joined by sortase to the C-terminal G5SLPETG tag of the full light chain; Gly5-EDA-PNU joined by sortase to the C-terminal LPETG tag of the full heavy chain
# B4: HuXBR1-402(17)-G5-PNU (Adc459) (other)
# VH: B1 VH
# VL: B1 VL with L8P, L14P, Q16K, A77V, Q78E
# modifications: Gly5-EDA-PNU joined by sortase to the C-terminal G5SLPETG tag of the full light chain; Gly5-EDA-PNU joined by sortase to the C-terminal LPETG tag of the full heavy chain
# B5: ERR1-301 chimeric rabbit/human Fab (Fab, V domains shown)
# VH: QEQLEESGGGLVTPGGSLTLTCTASGFTISTYHMSWVRQAPGKGLEWIGSIYAGSGSTYYASWVNGRFTISSNTTQNTVSLQMNSLTVADTATYFCARDHPSYGMDLWGPGTLVTVSS
# VL: SYELTQLPSVSVSLGQTARITCGGNSIGSKAVNWYQQKPGLAPGLLIYDDDERPSGVPDRFSASNSGDTATLTISGAQAEDEADYYCQLWDSSAVAYVFGGGTQLTVTG
# notes: Chimeric rabbit/human Fab with His tag, expressed in E. coli (pET11a); lambda light chain
# B6: ERR1-316 chimeric rabbit/human Fab (Fab, V domains shown)
# VH: QEQLEESGGRLVTPGTPLTLTCTASGFFLSSYYVSWVRQAPGKGLEWIGAIGTGGSAYYASWAKSRSTITRNTNLSTVTLKMTSLTAADTATYFCARDHPNYGMDLWGPGTLVTVSS
# VL: B5 VL with A63G, E80G, A94T, V95G, V98A
# notes: as for B5
# B7: ERR1-403 chimeric rabbit/human Fab (Fab, V domains shown)
# VH: QEQLKESGRGLVQPGGSLKLSCKASGFDFSGWYMTWVRQAPGKGLEWIGTIGTTKGRTYYASWVNGRFTISSNAQNTVDLQMNSLTAADRATYFCVRGSDYFDLWGPGTLVTISS
# VL: B5 VL with D59A, A63G, E80G, V95G
# notes: as for B5
# B8: ERR1-409 chimeric rabbit/human Fab (Fab, V domains shown)
# VH: QEQLVESGGRLVTPGGSLTLTCTASGFSLSSYYMGWVRQAPGKGLEWIGTIYGGSGSTWYASWVKGRFTISKTSTAVDLKITSLTTEDTATYFCARSYPGWTTEPYFDIWGPGTLVTVSS
# VL: QFVLTQPQSVSGSLGQTVSISCNRDSGNIEDYYVHWYQQHPGKAPTTVIYNDDQRPSGVPDRFSGSIDSTSNSASLTITGLLAEDEADYYCLSSDSSAYVFGGGTQLTVTG
# notes: as for B5
# B9: ERR1-TOP4 chimeric rabbit/human Fab (Fab, V domains shown)
# VH: QSVEESGGRLVTPGTPLTLTCTASGIDLSRYAVNWVRQAPGKGLEWIGVISGSGTTYYASWAKGRFTISKTSTTVDLKITSPTTEDTATYFCARGWATDGIFDYDDTFNLWGPGTLVTVSS
# VL: SYELTQLPSVSVSLGQTARITCGGDSIESKAVHWYQQKPGLAPGLLVYNDDERPSGVPDRFSGSNSGDTATLTISGAQAGDEADYYCQLWDGSAYVFGGGTQLTVTG
# notes: as for B5
# Molecular target: human ROR1, full length, on cells (human, UniProt Q01973 30-937)
# Sequence (Q01973 30-937): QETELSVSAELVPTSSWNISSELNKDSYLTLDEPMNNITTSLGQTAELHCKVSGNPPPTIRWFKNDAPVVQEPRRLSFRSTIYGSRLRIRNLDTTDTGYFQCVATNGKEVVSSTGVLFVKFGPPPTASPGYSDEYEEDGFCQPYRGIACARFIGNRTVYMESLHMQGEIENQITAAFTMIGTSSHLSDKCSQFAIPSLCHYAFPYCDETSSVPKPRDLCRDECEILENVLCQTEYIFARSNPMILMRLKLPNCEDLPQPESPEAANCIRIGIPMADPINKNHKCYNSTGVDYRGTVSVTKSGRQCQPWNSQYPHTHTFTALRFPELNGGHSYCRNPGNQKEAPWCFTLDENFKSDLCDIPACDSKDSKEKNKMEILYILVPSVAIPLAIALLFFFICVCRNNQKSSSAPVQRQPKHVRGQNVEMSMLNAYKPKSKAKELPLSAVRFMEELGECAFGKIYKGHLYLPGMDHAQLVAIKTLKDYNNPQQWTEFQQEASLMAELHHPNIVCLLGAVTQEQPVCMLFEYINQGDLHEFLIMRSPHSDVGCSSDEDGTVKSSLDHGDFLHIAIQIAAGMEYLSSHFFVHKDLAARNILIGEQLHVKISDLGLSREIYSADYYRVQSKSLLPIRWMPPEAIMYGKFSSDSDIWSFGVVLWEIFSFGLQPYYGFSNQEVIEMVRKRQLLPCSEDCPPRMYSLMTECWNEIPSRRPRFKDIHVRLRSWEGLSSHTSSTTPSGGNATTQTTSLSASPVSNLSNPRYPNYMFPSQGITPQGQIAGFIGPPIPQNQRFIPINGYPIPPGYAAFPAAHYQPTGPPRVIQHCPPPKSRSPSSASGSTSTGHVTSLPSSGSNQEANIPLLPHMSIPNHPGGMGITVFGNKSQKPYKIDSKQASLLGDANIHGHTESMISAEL
# Assay: cell-based or functional assay
row,Binder,IC50 values on 697 cells (in vitro cell killing)
1,B1,0.0981 µg/mL
2,B2,0.106 µg/mL
3,B3,0.164 µg/mL
4,B4,0.0706 µg/mL

# Molecular target: T1, hFc-mROR1 (extracellular domain of mouse ROR1 fused to the Fc domain of human IgG1) (human; mouse, UniProt Q9Z139 30-406)
# T1 construct: extracellular domain; not shown: Fc domain of human IgG1
# T1 sequence (Q9Z139 30-406): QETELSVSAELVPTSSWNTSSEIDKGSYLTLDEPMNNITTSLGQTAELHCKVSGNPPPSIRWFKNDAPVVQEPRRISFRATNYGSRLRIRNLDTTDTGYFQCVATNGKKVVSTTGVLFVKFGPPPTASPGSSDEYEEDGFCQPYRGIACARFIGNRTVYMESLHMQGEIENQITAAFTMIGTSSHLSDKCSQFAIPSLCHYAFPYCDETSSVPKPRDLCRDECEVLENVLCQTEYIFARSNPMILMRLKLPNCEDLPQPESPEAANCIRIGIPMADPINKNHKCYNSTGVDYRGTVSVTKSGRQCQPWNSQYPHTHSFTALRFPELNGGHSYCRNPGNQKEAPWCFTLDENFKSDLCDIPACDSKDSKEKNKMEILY
# Assay: ELISA; hFc fusion captured by coated anti-human IgG1 Fc; anti-His-HRP; A405
# Protocol: (§1) The binding of each chimeric rabbit/human Fab to hROR1 and mROR1 fused with human IgG1 Fc (hFc-hROR1 and hFc-mROR1) was analyzed by ELISA. hFc-ROR1 or hFc-mROR1 were captured by anti-human IgG1 Fc antibody immobilized on plate and then incubated with hROR1 specific Fabs comprising a His-tag via detection with mouse anti-His tag.
# (§2) ELISA: For ELISA (FIG. 2), each well of a 96-well Costar 3690 plate (Corning, Corning, N.Y.) was coated with 100 ng anti-human IgG1 Fc in 25 μL coating buffer (0.1 M Na₂CO₃, 0.1 M NaHCO₃, pH 9.6) for 1 h at 37° C. After blocking with 150 μL 3% (w/v) BSA/TBS for 1 h at 37° C., hFc-hROR1 or hFc-mROR1 was captured following incubation at 100 ng/50 μL for 1 h at 37° C. Then 100 ng/50 μL of Fab was applied in each well at 37° C. 2 h later, 50 μL of a 1:1000 dilution of a mouse anti-His tag mAb conjugated to horse radish peroxidase (HRP) (R&D Systems, Minneapolis, Minn.) in 1% (w/v) BSA/TBS was used to detect the Fab. To determine the epitopes (FIG. 4), hFc fusion proteins containing different domains of hROR1 were coated directly, followed by incubation with Fab before detection by mouse anti-His tag mAb conjugated to HRP. Washing with PBS was repeated and colorimetric detection was performed using 2,2′-azino-bis(3-ethylbenzthiazoline)-6-sulfonic acid (Roche) as substrate according to the manufacturer's directions. The absorbance was measured at 405 nm using a SpectraMax M5 microplate reader (Molecular Devices; Sunnyvale, Calif.) and SoftMax Pro software (Molecular Devices).
row,binding result,Binder
1,no binding (tested: 100 ng/50 µL),B5
2,no binding (tested: 100 ng/50 µL),B6
3,no binding (tested: 100 ng/50 µL),B7
4,no binding (tested: 100 ng/50 µL),B8
5,no binding (tested: 100 ng/50 µL),B9

# Molecular target: T2, hFc-hROR2 (extracellular domain of human ROR2 fused to the Fc domain of human IgG1) (human, UniProt Q01974 34-403)
# T2 construct: extracellular domain; not shown: Fc domain of human IgG1
# T2 sequence (Q01974 34-403): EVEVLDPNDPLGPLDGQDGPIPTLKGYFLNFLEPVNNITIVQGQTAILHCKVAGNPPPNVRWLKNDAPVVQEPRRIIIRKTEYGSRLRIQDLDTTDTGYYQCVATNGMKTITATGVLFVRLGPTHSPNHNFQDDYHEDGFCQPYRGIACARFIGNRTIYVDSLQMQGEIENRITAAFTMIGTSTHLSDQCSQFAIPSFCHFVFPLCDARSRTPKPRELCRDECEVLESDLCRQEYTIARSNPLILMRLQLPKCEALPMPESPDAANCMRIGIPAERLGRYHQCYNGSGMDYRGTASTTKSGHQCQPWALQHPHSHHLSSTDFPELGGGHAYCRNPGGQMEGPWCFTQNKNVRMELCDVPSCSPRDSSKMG
# Assay: ELISA as for hFc-hROR1; third bar series, keyed 'hFc-hROR1' a second time on the sheet, taken as hFc-hROR2 by legend paragraph 27
# Protocol: as §1, §2
row,binding result,Binder
1,no binding (tested: 100 ng/50 µL),B5
2,no binding (tested: 100 ng/50 µL),B6
3,no binding (tested: 100 ng/50 µL),B7
4,no binding (tested: 100 ng/50 µL),B8
5,no binding (tested: 100 ng/50 µL),B9

# Molecular target: T3, Kr (human, UniProt Q01973)
# T3 construct: Kringle domain of the extracellular domain; also called hFc-hROR1-Kr
# T3 sequence (Q01973 312-391 limits assumed): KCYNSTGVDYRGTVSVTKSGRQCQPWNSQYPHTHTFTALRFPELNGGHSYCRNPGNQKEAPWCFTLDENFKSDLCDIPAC
# Assay: ELISA on directly coated hFc fusion proteins of hROR1 domains; anti-His-HRP; A405
# Protocol: as §2
row,binding result,Binder
1,no binding,B5
2,no binding,B6
3,no binding,B7
4,no binding,B8
5,no binding,B9

# Molecular target: T4, Fr
# T4 construct: also called hFc-hROR1-Fr
# T4 sequence (chain, as listed by the source limits assumed): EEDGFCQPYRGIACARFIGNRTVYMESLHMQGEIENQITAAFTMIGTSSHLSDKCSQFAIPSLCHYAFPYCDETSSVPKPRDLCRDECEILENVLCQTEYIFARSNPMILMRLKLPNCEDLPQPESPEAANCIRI
# Assay: as above
# Protocol: as §2
row,binding result,Binder
1,no binding,B5
2,no binding,B6
3,no binding,B7
4,no binding,B8
5,no binding,B9

# Molecular target: T5, Fr + Ki (human, UniProt Q01973)
# T5 construct: Frizzled and Kringle domains of the extracellular domain; also called hFc-hROR1-Fr-Ki
# T5 sequence (Q01973 165-391 limits assumed): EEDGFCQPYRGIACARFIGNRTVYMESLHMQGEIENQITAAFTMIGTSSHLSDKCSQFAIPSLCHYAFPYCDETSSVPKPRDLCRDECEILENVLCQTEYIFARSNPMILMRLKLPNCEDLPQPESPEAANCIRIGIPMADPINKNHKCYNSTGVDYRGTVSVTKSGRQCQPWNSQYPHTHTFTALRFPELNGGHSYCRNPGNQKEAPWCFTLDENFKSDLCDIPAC
# Assay: as above
# Protocol: as §2
row,binding result,Binder
1,no binding,B5
2,no binding,B6
3,no binding,B7
4,no binding,B8
5,no binding,B9

# Molecular target: T6, Ig (human, UniProt Q01973)
# T6 construct: Ig domain of the extracellular domain; also called hFc-hROR1-Ig
# T6 sequence (Q01973 42-147 limits assumed): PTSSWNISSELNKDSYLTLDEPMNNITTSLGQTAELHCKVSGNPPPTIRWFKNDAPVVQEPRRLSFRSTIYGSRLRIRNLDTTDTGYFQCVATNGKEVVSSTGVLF
# Assay: as above
# Protocol: as §2
row,binding result,Binder
1,no binding,B5
2,no binding,B6
3,no binding,B7
4,no binding,B8
5,no binding,B9

# Molecular target: T7, hFc-hROR1 (extracellular domain of human ROR1 fused to the Fc domain of human IgG1) (human, UniProt Q01973 30-406)
# T7 construct: extracellular domain; also called hFc-ROR1; not shown: Fc domain of human IgG1
# T7 sequence (Q01973 30-406): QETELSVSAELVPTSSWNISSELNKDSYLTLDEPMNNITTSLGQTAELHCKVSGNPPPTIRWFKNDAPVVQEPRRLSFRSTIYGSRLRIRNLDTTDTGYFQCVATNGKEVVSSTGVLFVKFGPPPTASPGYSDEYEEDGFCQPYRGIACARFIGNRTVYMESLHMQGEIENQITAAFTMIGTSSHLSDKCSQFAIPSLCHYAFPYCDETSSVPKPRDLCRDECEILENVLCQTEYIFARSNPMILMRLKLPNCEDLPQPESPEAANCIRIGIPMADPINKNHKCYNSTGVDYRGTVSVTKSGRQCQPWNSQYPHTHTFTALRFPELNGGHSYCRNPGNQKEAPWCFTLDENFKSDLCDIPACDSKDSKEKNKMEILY
# Assay: SPR (Biacore X100); hFc-hROR1 captured by anti-human Fcγ antibody on CM5; Fab as analyte; 1:1 Langmuir fit
# Protocol: (A) Shown are Biacore X100 sensorgrams obtained for the binding of each Fab to hFc-hROR1 captured by anti-human Fcγ antibody immobilized on CM5 chip after instantaneous background depletion. Fabs were injected at five different concentrations with the highest concentration indicated in table (B), one of the five concentrations was tested in duplicates. The equilibrium dissociation constant (Kd) was calculated from koff/kₒₙ (kₒₙ, association rate constant; koff, dissociation rate constant).
# Surface plasmon resonance: Surface plasmon resonance for the measurement of the affinities of all Fabs to hFc-hROR1 and for epitope mapping studies were performed on a Biacore X100 instrument using Biacore reagents and software (GE Healthcare, Piscataway, N.J.). Anti-Human IgG (Fc) antibody was immobilized on a CM5 sensor chip following the instruction of Human Antibody Capture Kit (GE Healthcare, Piscataway, N.J.). The sensor chip included an empty flow cell for instantaneous background depletion. All binding assays used 1×HBS-EP+ running buffer (10 mM HEPES, 150 mM NaCl, 3 mM EDTA (pH 7.4), and 0.05% (v/v) Surfactant P20) and a flow rate of […]. […] The sensor chip was regenerated with […] from the Human Antibody Capture Kit without any loss of binding capacity. Calculation of association (kₒₙ) and dissociation (koff) rate constants was based on a 1:1 Langmuir binding model. The equilibrium dissociation constant (Kd) was calculated from koff/kₒₙ. For epitope mapping studies, each Fab was prepared at 500 nM alone in 1×HBS-EP+ running buffer and then injected in order as indicated in FIG. 5.
Kd,koff,kon,Binder
118 nM,0.1 s⁻¹,849000 M⁻¹ s⁻¹,B5
121 nM,0.133 s⁻¹,1.1e+06 M⁻¹ s⁻¹,B6
41.6 nM,0.00128 s⁻¹,30800 M⁻¹ s⁻¹,B7
281 nM,0.0162 s⁻¹,57500 M⁻¹ s⁻¹,B8
240 nM,0.0592 s⁻¹,247000 M⁻¹ s⁻¹,B9

# Molecular target: T8, hROR2 (human, UniProt Q01974)
# T8 construct: full length, on the cell surface; also called 63-12 / hROR2; ROR2 on T47D cells
# T8 sequence (Q01974 34-943 limits assumed): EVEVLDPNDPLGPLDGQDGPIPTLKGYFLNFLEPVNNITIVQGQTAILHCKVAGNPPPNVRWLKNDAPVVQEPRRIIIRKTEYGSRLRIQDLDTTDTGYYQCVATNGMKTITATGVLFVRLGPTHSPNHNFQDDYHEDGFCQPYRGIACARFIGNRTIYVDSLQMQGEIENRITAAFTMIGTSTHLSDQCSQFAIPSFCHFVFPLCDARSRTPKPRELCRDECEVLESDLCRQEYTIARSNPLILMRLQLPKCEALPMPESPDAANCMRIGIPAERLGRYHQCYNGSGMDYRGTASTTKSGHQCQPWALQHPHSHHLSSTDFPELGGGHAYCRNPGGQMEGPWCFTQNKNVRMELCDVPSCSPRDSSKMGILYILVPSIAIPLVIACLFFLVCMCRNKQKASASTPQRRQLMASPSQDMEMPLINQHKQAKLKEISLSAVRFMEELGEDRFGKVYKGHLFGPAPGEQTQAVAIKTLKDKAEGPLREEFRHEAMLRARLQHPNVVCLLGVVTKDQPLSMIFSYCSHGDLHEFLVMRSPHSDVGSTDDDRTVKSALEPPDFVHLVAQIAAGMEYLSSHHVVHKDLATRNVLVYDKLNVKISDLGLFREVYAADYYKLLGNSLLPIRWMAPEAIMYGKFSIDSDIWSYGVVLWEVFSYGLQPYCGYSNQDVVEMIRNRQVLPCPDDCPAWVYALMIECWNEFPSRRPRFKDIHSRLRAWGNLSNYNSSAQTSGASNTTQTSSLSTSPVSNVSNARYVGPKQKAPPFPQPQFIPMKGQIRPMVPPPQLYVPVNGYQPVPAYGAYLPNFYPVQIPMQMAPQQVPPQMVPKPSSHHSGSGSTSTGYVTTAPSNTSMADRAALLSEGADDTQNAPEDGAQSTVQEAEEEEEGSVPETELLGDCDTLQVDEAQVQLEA
# Assay: flow cytometry on 63-12 / hROR2 cells; anti-His Alexa Fluor 488
# Protocol: Flow cytometry: Cells were stained using standard flow cytometry methodology. Briefly, for purified anti-ROR1 Fab (FIG. 3), 0.1-1×10⁶ cells were stained with 1000 ng/100 μL of Fab on ice for 1 h. After washing twice with ice-cold flow cytometry buffer (PBS containing 1% (v/v) BSA, 0.1% sodium azide and 1 mM EDTA), the cells were incubated with a 1:1000 dilution of a mouse anti-His tag mAb conjugated to Alexa Fluor 488 (Qiagen) in 100 μL flow cytometry buffer on ice for 30 min. For purified anti-ROR1 IgG1 (FIG. 8), 0.1-1×10⁶ cells were blocked by 4% goat serum for 15 min at room temperature and then incubated with 100 ng/100 μL of IgG on ice for 1 h. After washing twice with ice-cold flow cytometry buffer, cells were stained with a 1:500 dilution of goat anti-human IgG, Fcγ pAbs conjugated to APC (Jackson ImmunoResearch) in 100 μL flow cytometry buffer on ice for 30 min. For commercial goat anti human ROR1 polyclonal antibody (FIG. 8), 0.1-1×10⁶ cells were stained with 200 ng/100 μL of Ab on ice for 1 h. […] Finally, 4′,6-diamidino-2-phenylindole (DAPI) was added to a final concentration of 100 ng/mL to exclude dead cells from the analysis. Cells were analyzed using a FACSCalibur instrument (BD Biosciences) and FlowJo analytical software (Tree Star, Ashland, Oreg.).
row,binding result,Binder
1,no binding (tested: 1000 ng/100 µL),B5
2,no binding (tested: 1000 ng/100 µL),B6
3,no binding (tested: 1000 ng/100 µL),B7
4,no binding (tested: 1000 ng/100 µL),B8
5,no binding (tested: 1000 ng/100 µL),B9
